# Laboratory results from US20240335555A1 (BIOHAVEN THERAPEUTICS, published 2024).
# B1: I-24 (designed binder)
# chain: DKEEILNKIYEIMRLLDELGNAEASMRVSDLILEFMKKGDERLLEEAERLLEEVERGGSEQKLISEEDLGSGGGGSLPETGGGGSGGSSHHHHHHHHHH
# notes: also called P227; LCB1
# B2: I-27 (other)
# peptide: NDDELLMLVTDLVAEALLFAKDEEIKKRVFTLFELADKAYKNNDRDTLSKVVSELKELLERLQSGGSEQKLISEEDLGSGGGGSLPET
# notes: also called MATE agent I-27
# B3: I-26 (other)
# peptide: DKEEILNKIYEIMRLLDELGNAEASMRVSDLILEFMKKGDERLLEEAERLLEEVERGGSEQKLISEEDLGSGGGGSLPET
# notes: also called MATE agent I-26
# Key:
# [1] = target: T1, SARS-CoV-2 (COVID-19) S Protein RBD, His Tag (SARS-CoV-2, UniProt P0DTC2 319-537); experiment: BLI (Octet), LCB1 binding to anchored Spike RBD
# [2] = target: T1, SARS-CoV-2 (COVID-19) S Protein RBD, …; experiment: ELISA, Spike RBD anchored on plate
# [3] = target: T2, SARS-CoV2 Spike-GFP protein on 293T cells (SARS-CoV-2, UniProt P0DTC2 14-1273); experiment: flow cytometry on 293T cells expressing Spike-GFP, % gated read-out
# T2 construct: whole, on cells
binder,measurement,setting,value
B1,binding result,[1],no binding
B2,EC50,[2],4 nM
B3,IC50,[3],1.3 nM
